Earlier results on 2 substances are cited in paper PMC5221605.

Series [1] addresses Fibrinogen Aα-chain 561-575 (Homo sapiens) (UniProt P02671).
The target in series [2] is Fibrinogen (Homo sapiens) (UniProt P02671).
For a further series, the target named is Fibrin (Homo sapiens) (UniProt P02671).

UniProt P02671, sequence (P02671 36-866, chain 1 of 3): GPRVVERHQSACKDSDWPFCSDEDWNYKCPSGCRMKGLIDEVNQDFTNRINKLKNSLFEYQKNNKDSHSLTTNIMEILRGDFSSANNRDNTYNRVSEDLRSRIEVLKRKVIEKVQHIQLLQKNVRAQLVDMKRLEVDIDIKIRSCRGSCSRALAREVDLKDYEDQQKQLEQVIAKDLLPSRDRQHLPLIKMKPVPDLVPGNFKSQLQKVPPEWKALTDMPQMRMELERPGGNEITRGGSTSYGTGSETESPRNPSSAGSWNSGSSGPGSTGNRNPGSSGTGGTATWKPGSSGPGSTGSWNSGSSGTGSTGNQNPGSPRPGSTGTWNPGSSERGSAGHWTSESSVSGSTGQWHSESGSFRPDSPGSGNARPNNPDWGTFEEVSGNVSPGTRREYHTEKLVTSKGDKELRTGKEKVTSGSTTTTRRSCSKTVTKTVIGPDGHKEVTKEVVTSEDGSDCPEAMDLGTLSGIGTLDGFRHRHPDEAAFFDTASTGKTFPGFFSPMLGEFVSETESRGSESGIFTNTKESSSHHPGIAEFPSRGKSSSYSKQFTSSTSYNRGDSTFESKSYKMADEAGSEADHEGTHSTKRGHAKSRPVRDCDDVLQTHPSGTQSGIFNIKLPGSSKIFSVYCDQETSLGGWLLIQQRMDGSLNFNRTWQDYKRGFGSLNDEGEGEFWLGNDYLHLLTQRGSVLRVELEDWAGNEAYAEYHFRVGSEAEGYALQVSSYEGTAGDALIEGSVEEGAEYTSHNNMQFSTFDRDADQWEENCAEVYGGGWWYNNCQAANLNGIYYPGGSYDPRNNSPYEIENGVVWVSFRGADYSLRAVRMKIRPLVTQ
UniProt P02671, sequence (P02675 45-491, chain 2 of 3, further chain): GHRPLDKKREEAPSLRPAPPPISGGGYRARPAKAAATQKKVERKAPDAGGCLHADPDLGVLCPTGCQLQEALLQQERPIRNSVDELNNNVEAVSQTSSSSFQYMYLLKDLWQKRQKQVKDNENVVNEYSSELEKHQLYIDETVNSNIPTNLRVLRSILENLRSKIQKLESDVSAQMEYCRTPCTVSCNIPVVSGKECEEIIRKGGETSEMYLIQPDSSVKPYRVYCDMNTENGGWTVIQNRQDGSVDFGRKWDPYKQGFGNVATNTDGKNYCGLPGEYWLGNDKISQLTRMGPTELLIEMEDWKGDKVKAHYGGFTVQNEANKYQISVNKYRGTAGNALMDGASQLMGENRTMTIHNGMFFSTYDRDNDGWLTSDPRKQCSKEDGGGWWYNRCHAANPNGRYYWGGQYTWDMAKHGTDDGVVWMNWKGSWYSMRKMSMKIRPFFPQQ
UniProt P02671, sequence (P02679 27-453, chain 3 of 3, further chain): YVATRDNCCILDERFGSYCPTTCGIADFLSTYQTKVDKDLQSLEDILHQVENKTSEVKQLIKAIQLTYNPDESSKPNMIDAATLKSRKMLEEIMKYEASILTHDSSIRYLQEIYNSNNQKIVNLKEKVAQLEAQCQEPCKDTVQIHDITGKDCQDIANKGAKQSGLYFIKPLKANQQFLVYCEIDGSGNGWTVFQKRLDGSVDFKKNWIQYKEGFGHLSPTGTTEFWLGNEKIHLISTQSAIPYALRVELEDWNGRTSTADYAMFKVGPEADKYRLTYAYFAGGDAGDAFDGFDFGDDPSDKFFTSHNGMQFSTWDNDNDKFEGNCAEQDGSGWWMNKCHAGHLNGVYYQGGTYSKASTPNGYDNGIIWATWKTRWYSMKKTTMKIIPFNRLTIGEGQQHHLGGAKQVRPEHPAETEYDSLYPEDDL

Regarding Bbp N2-N3 (from UniProt Q6GJA6), the Kd (usually the free concentration of one partner at which half of the binding sites on the other are occupied at equilibrium, for simple one-to-one binding) in series [1] was 500 nM.

As to ClfA (from UniProt Q2G015), the Kd (in series [2]; with Fibrin (Homo sapiens)) was 500 nM throughout.
